Measured values reported in patent US20240024490.

Assays:
[1] = biological target: ABL (UniProt P00519)
[2] = biological target: BTK (UniProt Q06187)
[3] = biological target: BRD4 (UniProt O60885)

BTK, sequence (Q06187 whole entry): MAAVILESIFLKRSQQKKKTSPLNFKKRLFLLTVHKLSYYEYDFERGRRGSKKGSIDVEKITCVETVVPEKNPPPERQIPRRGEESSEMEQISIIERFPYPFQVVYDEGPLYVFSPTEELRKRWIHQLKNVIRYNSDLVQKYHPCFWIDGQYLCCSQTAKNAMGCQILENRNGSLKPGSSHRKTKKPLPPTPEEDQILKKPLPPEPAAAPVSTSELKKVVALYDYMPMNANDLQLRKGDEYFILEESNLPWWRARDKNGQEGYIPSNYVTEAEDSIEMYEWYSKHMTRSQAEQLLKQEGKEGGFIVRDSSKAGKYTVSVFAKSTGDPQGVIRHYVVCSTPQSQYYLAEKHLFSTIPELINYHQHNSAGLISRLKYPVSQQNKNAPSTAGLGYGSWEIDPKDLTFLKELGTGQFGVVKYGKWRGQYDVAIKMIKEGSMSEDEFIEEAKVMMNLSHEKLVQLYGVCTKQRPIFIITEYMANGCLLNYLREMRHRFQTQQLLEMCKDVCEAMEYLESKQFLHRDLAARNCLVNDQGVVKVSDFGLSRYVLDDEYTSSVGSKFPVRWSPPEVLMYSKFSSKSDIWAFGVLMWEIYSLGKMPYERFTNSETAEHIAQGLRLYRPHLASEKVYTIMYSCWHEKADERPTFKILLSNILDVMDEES
ABL, sequence (P00519 whole entry): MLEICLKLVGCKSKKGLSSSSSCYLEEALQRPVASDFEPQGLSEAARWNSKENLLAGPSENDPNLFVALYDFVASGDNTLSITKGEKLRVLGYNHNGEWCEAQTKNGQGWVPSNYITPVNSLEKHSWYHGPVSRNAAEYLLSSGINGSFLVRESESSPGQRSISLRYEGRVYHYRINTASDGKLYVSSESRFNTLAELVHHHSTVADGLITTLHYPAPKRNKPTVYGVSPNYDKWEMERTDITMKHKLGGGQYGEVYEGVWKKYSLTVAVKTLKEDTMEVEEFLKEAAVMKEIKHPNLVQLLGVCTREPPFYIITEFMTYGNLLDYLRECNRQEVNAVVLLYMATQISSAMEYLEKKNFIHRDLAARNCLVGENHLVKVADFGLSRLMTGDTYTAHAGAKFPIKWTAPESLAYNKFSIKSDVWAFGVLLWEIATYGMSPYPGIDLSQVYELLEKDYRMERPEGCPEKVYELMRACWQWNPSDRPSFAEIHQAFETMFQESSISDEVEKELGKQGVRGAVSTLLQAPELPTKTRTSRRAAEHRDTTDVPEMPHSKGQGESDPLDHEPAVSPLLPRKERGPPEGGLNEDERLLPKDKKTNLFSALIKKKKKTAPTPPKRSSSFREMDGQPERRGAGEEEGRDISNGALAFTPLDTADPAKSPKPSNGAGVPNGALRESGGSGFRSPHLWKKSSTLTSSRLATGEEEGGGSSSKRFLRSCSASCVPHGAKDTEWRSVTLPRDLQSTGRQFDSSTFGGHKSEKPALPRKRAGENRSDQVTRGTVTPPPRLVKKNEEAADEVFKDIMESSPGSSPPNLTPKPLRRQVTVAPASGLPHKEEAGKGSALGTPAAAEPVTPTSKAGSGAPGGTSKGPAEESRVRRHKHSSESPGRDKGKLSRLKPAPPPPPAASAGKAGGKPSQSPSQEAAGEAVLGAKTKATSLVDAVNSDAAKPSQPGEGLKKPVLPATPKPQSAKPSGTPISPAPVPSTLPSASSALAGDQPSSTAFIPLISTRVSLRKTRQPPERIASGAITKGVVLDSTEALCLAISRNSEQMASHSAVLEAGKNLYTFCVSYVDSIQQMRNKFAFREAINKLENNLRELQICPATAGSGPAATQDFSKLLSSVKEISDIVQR

PKC
phosphorylation of ABL by PKC in vitro, with PHICS5 [1]: An ABL-targeting PHICS5 formed using dihydropyrazole core also induced phosphorylation of ABL, compare to DMSO or activator VS1012 treated controls
phosphorylation of ABL by PKC in vitro, with VS558 [1]: bifunctional molecule VS558 based on a known inhibitor dasatinib, that binds to a different pocket of ABL kinase [16], also induced its phosphorylation by PKC in vitro
phosphorylation of BTK by PKC in vitro, with PHICS6 (PKC-motif antibody) [2]: the degree of phosphorylation was higher in the presence of PHICS6
phosphorylation of BTK by PKC in vitro, with the inactive analog iPHICS6 [2]: the inactive PHICS analogs lowered phosphorylation induction
phosphorylation of BTK by PKC in vitro, without PHICS (PKC-motif antibody) [2]: some phosphorylation of BTK by PKC was observed in the absence of PHICS (quantified using PKC-motif antibody)
phosphorylation of BRD4 by PKC in vitro, with PHICS4 [3]: BRD4 phosphorylation was detected in the presence of PHICS4
phosphorylation of BRD4 by PKC in vitro, with the chimeric molecule made from (R)-JQ1 [3]: absence of phosphorylation when a chimeric molecule generated from the inactive enantiomer of (S)-JQ1 [i.e., (R)-JQ1] was used
